The values below come from the DeepSol protein solubility set.

The nature of this data set: soluble on expression in E. coli; label from the status in PepcDB or PDB records.
For “AAEVGDDFLGDFVVGERVWVNGVKPGVVQYLGETQFAPGQWAGVVLDDPVGKNDGAVGGVRYFECPALQGIFTRPSKLTRQP”, the “soluble on expression in E. coli” value is “soluble”.

With “AAIYHLDVSGQATIRFRPPAFLKTLVSEHAGTTRLNTLSMIHHDDRHMLSNAYSKLREAKHSLTLVYRIVTPEGKLHWIEDHMRSSFSDD”, the “soluble on expression in E. coli” value was “not soluble”. For “AARPRKNNVSVPNLYPLYSRKVNKVYWRYKHPVTGKFHALGTNEAEAIAIATEANTRLAEQRTRQILAISDRIATSKGKAITTSTWLDRYQAIQDDRLKSGDIRLNTYKQKAKPVSLLRERAGMKLISAVDVRDIAQLLDEYIAAGRPRMAQVVRSVLIDVFKEAQHYGEVPPGYNPALATKQPRRKITRQRLSLEEWKKIFDIADATHRYMGNAMLLALVTGQRLGDISRMKFSDIWDDHLHVIQEKTGSKIAIPLSLRLNAINWSLRDVVARCRDYAVSAYLVHFFRSTSQAERGAQVKANTLTMNFSKARDLARIDWGEGSPATFHEQRSLSERLYKEQGLDTQKLLGHKTQQQTDRYHDDRGKGWSKVAL” the value was “not soluble”; for “ADFEVHMLNKGKDGAFVFEPASLKVAPGDTVTFIPTDKGHNVETIKGMIPDGAEAFKSKINENYKVTFTAPGVYGVKCTPHYGMGMVGVVQVGDAPANLEAVKGAKNPKKAQERLDAALAALGN”, “soluble”; for “ADPAECSIKVMCRFRPLNEAEILRGDKFIPKFKGEETVVIGQGKPYVFDRVLPPNTTQEQVYNACAKQIVKDVLEGYNGTIFAYGQTSSGKTHTMEGKLHDPQLMGIIPRIAHDIFDHIYSMDENLEFHIKVSYFEIYLDKIRDLLDVSKTNLAVHEDKNRVPYVKGCTERFVSSPEEVMDVIDEGKANRHVAVTNMNEHSSRSHSIFLINIKQENVETEKKLSGKLYLVDLAGSEKV”, “soluble”. For “ADVTITVNGKVVAKPCTVSTTNATVDLGDLYSFSLMSAGAASAWHDVALELTNCPVGTSRVTASFSGAADSTGYYKNQGTAQNIQLELQDDSGNTLNTGATKTVQVDDSSQSAHFPLQVRALTVNGGATQGTIQAVISITYTYS” the value was “soluble”; for “AEDAKLRINGATVTSATNKVTNYIPGVTINLKKETTGAEKLTIQDQSDEKAASMITSFVNTYNALTSTMKTYTGKGTILQASAADLEANRALNNVFQHKKDGNTLFDFGISVDKEGVLKVDETAMKKMVAEDPTAVERFFFGIGGIGDELYQSLNKTFGSTGFISDETTSMTNEINKLNLKLTDITSRNDTLLTNITDQYNKWLEMMQAMQSDAMTLDALIDGMNSSNK”, “not soluble”; for “AEEYGYIVTDQKPLSLAAGVKLLEILAEHVHMSSGSFINISVVGPALTFRIRHNEQNLSLADVTQQAGLVKSELEAQTGLQILQTGVGQRE”, “soluble”. For “AEPQPPSGGLTDEAALSCCSDADPSTKDFLLQETMLRVKDPKKSLDFYTRVLGMTLIQKCDFPIMKFSLYFLAYEDKNDIPKEKDEKIAWALSRKATLELTHNWGTEDDETQSYHNGNSDPRGFGHIGIAVPDVYSACKRFEELGVKFVKKPDDGKMKGLAFIQDPDGYWIQILNPNKMATLM” the value was “soluble”. For “AERGELDLTGAKQNTGVWLVKVPKYLSQQWAKASGRGEVGKLRIAKTQGRTEVSFTLNEDLANIHDIGGKPASVSAPREHPFVLQSVGGQTLTVFTESSSDKLSLEGIVVQRAECRPA”, the “soluble on expression in E. coli” value is “soluble”. For “AGADGTSEELADNFVFGFHATVEALQQGRGNKLFLQEDARGEKIEQLKQAAKEQAVPVKWVPKAKLDTMSDHGVHQGMVLAITA” the value was “not soluble”. For “AGFKPAPPAGQLGAVIVDPYGNAPLTALVDLDSHVISDVKVTVHGKGEKGVEISYPVGQESLKTYDGVPIFGLYQKFANKVTVEWKENGKVMKDDYVVHTSAIVNNYMDNRSISDLQQTKVIKVAPGFEDRLYLVNTHTFTAQGSDLHWHGEKDKNAGILDAGPATGALPFDIAPFTFIVDTEGEYRWWLDQDTFYDGRDRDINKRGYLMGIRETPRGTFTAVQGQHWYEFDMMGQVLEDHKLPRGFADATHESIETPNGTVLLRVGKSNYRRDDGVHVTTIRDHILEVDKSGRVVDVWDLTKILDPKRDALLGALDAGAVCVNVDLAHAGQQAKLEPDTPFGDALGVGPGRNWAHVNSIAYDAKDDSIILSSRHQGVVKIGRDKQVKWILAPSKGWEKPLASKLLKPVDANGKPITCNENGLCENSDFDFTYTQHTAWISSKGTLTIFDNGDGRHLEQPALPTMKYSRFVEYKIDEKKGTVQQVWEYGKERGYDFYSPITSIIEYQADRNTMFGFGGSIHLFDVGQPTVGKLNEIDYKTKEVKVEIDVLSDKPNQTHYRALLVRPQQMFK” the value was “soluble”; for “AGKTLYDKLWDMHLVKQRDDGSALIYIDRHILHEVTSPQAFEGLRLAGRKPWRIDANIATPDHNVPTTRTERKGGIAAIADEVSRLQVQTLDENCDDFGITEFKMNDVRQGIVHVVGPEQGATLPGMTVVCGDSHTSTHGAFGALAHGIGTSEVEHVLATQCLVAKKMKN”, “not soluble”. For “AGKTLYDKLWEAHEVKRRDDGSSLIYIDRHIIHEVTSPQAFEGLRLANRKPWRIDANIATPDHNVPTTPERKGGIEAIVDQVSRLQVQTLDENCDEYGIVEFKMNDERQGIVHVISPEQGATLPGMTVVCGDSHTSTHGAFGALAHGIGTSEVEHVLATQCLVAKKMKN” the value was “not soluble”; for “AGNATEVPANSTVLSFCAFAVDPAKAYKDYLASGGQPITNCVKMLCTHTGTGQAITVTPEANMDQESFGGASCCLYCRCHIDHPNPKGFCDLKGKYVQIPTTCANDPVGFTLRNTVCTVCGMWKGYGCSCDQLREPLMQSADASTFLNGFAV”, “soluble”. For the sequence “AGNTSYFLRRKIFRKIMHITAPSHDQYGSSTLLVRLTNDVYLMEIMTFDFL”, the “soluble on expression in E. coli” value was “not soluble”. Turning to “AHHHHHHGSEYKPIRKVVSGNYAAAYAALHARVQVVAAYPITPQTSIIEKIAEFIANGEADIQYIPVESEHSAMAACIGASATGARTFTATSAQGLALMHEMLHWAAGARLPIVMVDVNRAMAPPWSVWDDQTDSLSQRDTGWMQFYAENNQEVYDGVLMAYKVAETVNVPAMVVESAFILSHTYDVVEMIPQELVDEFLPPRKPLYSLANFDEPIAVGALATPNDYYEFRYKLAKAHEEAKKVIKEVGKEFGERFGRDYSQMIETGYIDDADFVFMGMGSLMGTVKEAVDLLRKEGYKVGYAKVRWFRPFPKEELVEIAESVKGIAVLDRNFSFGQEGILFTESKGALYNSSAHPLMKNYIVGLGGRDVTVKDIKAIADDMKKVIESGKVDKEVVWYHLKR”, the “soluble on expression in E. coli” value is on record as “soluble”. For “AHHHHHHGSGDNRKVRVVVGGVFDILHVGHVHFLKMAKELGDELIVIVAHDETVKRRKGRPPINPAEDRAELLKSIRYVDDVVIGEPGEISIDLIKRLKPDVIALGPDQDFSCEELKKRLRKEGINAEVIRLPYLYKSDRAKTSKIIQRIIETFCE” the value was “not soluble”; for “AHHHHHHGSKARGRAWKYGDNIDTDVIIPARYLNTSDPKELAQHVLEDLDPEFRYKMKPGDIIVAGENFGCGSSREHAPLAIKAAGVSAVIAKSFARIFYRNAINIGLPILEAPEAVERIETGDEIEIDFSTGEIRNLTKGEVYHANPFPEFIMEIIKAGGLVEWAKRRLAK”, “soluble”; for “AHHHHHHGSKEKRKYFMAHRIGVIQRSKIRELFERASKMENVISLGIGEPDFDTPNNIKEAAKRALDEGWTHYTPNAGIPELREAIAEYYKKFYGIDVEVDNVLVTAGAYEATYLAFETMLEQGDEVIIPDPAFVCYVEDAKLAEAKPIRLPLREENDFKPDIDELLERITKRTRMIVINYPNNPTGAVLDKETAKAIADVAEDYNIYILSDEPYEHFLYDDAKHYPMIKFAPDNTILANSFSKTFAMTGWRLGFVIAPTQIIREMIKLHAYIIGNVASFVQVAGIEALRSKESWKAVEEMRKEYNERRKLVLQRLRKMPYIKVREPKGAFYVFPNISETEMSSEEFSEWLLEKAKVVVIPGTAFGENGEGYVRISYATSREKLIEAMDRIEKALEEI”, “soluble”.
